Results taken from a protein production outcome set (Wang et al. 2014).

Test: label from the status in PepcDB records
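Also: failed if final PepcDB status was selected cloned or expressed and not failed if soluble or beyond.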

Row | Sequence | protein production
1 | MIDALLNFDFIRYSLISGLLIGFIAPLIGAFIVVRRLSLIADALSHVTLGGISFGMFLLTIIPVFSVINPMWFGILFAVIGALLIEKLRTSFSNYQEIAIPIIMSAGIALSAIFISLADGFNQEIVGLLFGSISAVNISDLTTIIIITIIVLIFIVLFYKELFILSFDEEYSKVIGIPKWIQFLFIVIVAMVISASMRVVGILLVSALITLPIAISMRITKGFKQLIALSVILGELSVILGLIIAFYMNISPGGVIVVLLVLMLILTMIIQKLKIKFKKGVV | failed
2 | MTYMYDHDHIPKHITATIWEHLQRENPNFFKEYNKRCELVRQIVTLNDLLAQQIDLMQRLSQLDVGTTAPVTKLQEPNDHHHDEVQTLEQWLETNGFANIEDTFLCLSDLVDAPVTEVQKPKDKDQSCDQWINGSNDLASIEETVSSLINPSPFAETPQSEPPGLRYDTDCACITATSNLVTWVYDPSGDNKSGVEISSERRFGANISLERRRPREAGFTEQRPPSVLDGGRITGPLSSEPTMTH | failed
3 | RQKFINDVLHLLYRPLDWNQSIAKVMELLGRFTQADRSYIFENSPDDSYATNTFEWCQEGIAPQIHLLQHFEYSLMPSWKPLIVEKKMICASDISTLPLDLSETLAPQGIKSILAVSIFAQGRLYGYLGLDSCRKKREWSEEEIELLRSISTIIAGAIERRGWERSEKEQ | failed
4 | MPIIIDKDLPARKVLQEENIFVMTKERAETQDIRALKIAILNLMPTKQETEAQLLRLIGNTPLQLDVHLLHMESHLSRNVAQEHLTSFYKTFRDIENEKFDGLIITGAPVETLSFEEVDYWEELKRIMEYSKTNVTSTLHICWGAQAGLYHHYGVQKYPLKEKMFGVFEHEVREQHVKLLQGFDELFFAPHSRHTEVRESDIREVKELTLLANSEEAGVHLVIGQEGRQVFALGHSEYSCDTLKQEYERDRDKGLNIDVPKNYFKHDNPNEKPLVRWRSHGNLLFSNWLNYYVYQETPYVL | not failed
5 | MARIKLDFPDTAFTFETRLPVRITDINGANHLGNDALISMLSEARAQFLVEHGIEEAGHDGVGIIVTDLATMYQGESFYPDMLRFEVGLMDFNKYGGDFVFRVTKADSGQPVALAKYGFVFFNYQSREVTPMPESFRARFA | failed
6 | MSITRRDILKGAAATGAIAATSVLSGCQKTGATNSMADLAHKIKRPNLLIIFPDEMRAQALGFMGEDPSLTPNLNRFAKDSAVLKQAVSNFPLCTPFRGMLMTGQYPYRNGIQGNSHTATPGMFGGKDFGIELKKNQSTWSDILSQQGYSMGYIGKWHLDAPEAPFVPSYNNPMEGRYWNDWTTPDRRHGFDFWYSYGTYDKHLTPMYWTNDTPRDQPLHINQWSPEHEADIAIKYLRNENGNYRNNDKPFTLVVSMNPPHSPYDQVPQKYLDRFKESSRTLNSRPNVQWDKEYLEGYGPEYFKEYMAMVNGVDEQFGRIVDELDALNLAKDTLVVFFSDHGCCMGSNGNPTKNVHYEEAMRIPMMFRWPGKIAPKSDDLLFSAPDIYPTLFGLMGMDDLIPDTVEGTDFSKTVKSESGDIKPTSQFYTFMPYGGQSYGRRGIRNKQYTLMIDRKIGKPLTYVLHDNQVDPYQMKNIAEQQPELISQLIQNELMPWLEHTGDPWRPTEVPKNTANAYT | failed
7 | MAVPRWAVRDLTQISSARELSLRLEQARNDFRATVGSICYFNASARTPGQFDDEYIMTDQSLTYVYADGVTAQSCAMNRLLPSSSSNFGAAATAIPPWLLDPPRLNRLLREGTDEGGLVNYYEGPHKNAFFLAIMRSCIFVRPGADEINGVSYDFFARSGNYTEQLEHHHHHH | failed
8 | MKFKNILFDFDDTLVDFYDAEKKAFYNLAQKYNHQPTQQDFEHFKKVNQAHWEAFQQNKLTKDEVLSQRFINYFNDYQIHVNGKEADKCFRAELAMAPVKLFDHTLEVIQQLKLNHSLYIVTNGVTETQLRRIAQTQFNEIFQDVFISEKAGFQKPMTEFFDFVFEHIGENNRNQTLIVGDSLTSDILGGKNANISTCWFNIRQKENHTSIQPDYIINDLSEMIRIVE | failed
9 | MDFSVLLASLGISILELSEASAVAVIFQGIYKNSKPFLYAIAGILIVLVPVFTLGQYIVLLPINYVLLVAAVILAYFGYKLLRSARRSFKGSKKKHEEKEEGIMTVFVVSATEALEAGLVILALIPQSFSSALLGTGIAVIIVIALTIALRSQIMKIRVPHLKFVLSALLFGLATLFVAEALVDIDEVFLPLFFVIYLGVNYLVIKL | failed
10 | MLWSFIAVCFSAWLYVDASYRGPAWRRWVFKPVTLILLLLLAWQAPMFNAISYLVLAGLCASLLGDALTLLPRQRVMYAVGAFFLSHLLYTIWFASQLTLSFFWPLPLVLLVFGALLMAVIWSRLEEMKMPVLTFIGMTLVMVWLAGELWFARPTNTALSGFAGAALLLLSNAVWLVSHYRRRFRADNAIAAAFYFAGHFLIVRALYL | failed
11 | MANLWIHALTVFMGFFAIMNPIANVPIFLSLTEGDDKKTTAMVASRALLLAFLIVTIFSVAGKLIFDLFGITLPAFQITGGLLVFLIGFHMLQGDQSSVQHPSETGKKKSPEAALSVTVSPLAMPILAGPGTIATAMNFSTGENFMEMAVTIVVFGVLCLITYVLFVSGEKFVTYIGASALGVITRMMGLILAVIGAQMVIAGIHGAFGLGAG | failed
12 | MIGREGVTTLRFTVKQQFITHKHTLYGVAAILLWGSLMALTRRVAEEFSPIGGAALIYTVSTLFLLFAMGMPRLKAGSSRYILIGGALFVSYEICLALALGMASDRLQAIEMSVINYLWPALTVLIAVLLSQRAVSFWVYPSVGLAFAGVAWTIVAEQGISLADFSARIATNPAVYAMALTGAFIWAIYCNVTQRLARGQNAIVLFFAATAATLWLQYALSNEPALSFTGSSMGTLLLTGIVMGSGYALWNVAILRGNMLLLATLSYFTPVISTLFSSLILGVVLGLSFWQGVIMVTFGSLICWWVTRESSSSTGEVPETPPPLKEQS | failed
13 | MERKINRREKEKEYEGKHNSLEDTDQGKNCKSTLMTLNVGGYLYITQKQTLTKYPDTFLEGIVNGKILCPFDADGHYFIDRDGLLFRHVLNFLRNGELLLPEGFRENQLLAQEAEFFQLKGLAEEVKSRWEKEQLTPRETTFLEITDNHDRSQGLRIFCNAPDFISKIKSRIVLVSKSRLDGFPEEFSISSNIIRFKYFIKSENGTRLVLKEDNTFVCTLETLKFEAIMMALKCGFRLLTSLDCSKGSIVHSDALHFIK | not failed
14 | EPPDERAVADGWQQLVELGAVDSQHVLTAIGREMARLPVDVKSARMLVAARQHGCVHEMTVIAAFLGVQDPRERPPEAREAADNAHAKFADAR | not failed
15 | MTEAGASIVVTVKNEGKNLRELLESIEKNDFTNFETVVVDDLSTDDTEDIVKSYRFTVYKRIACSRGEGRNIGVDLSRYGYILFTDGDAKVSEHWISGMVSALAAGNDAVIGNTLYTGKRRYMQERVKIFLEGIEVTAPSVNLAYRKDRFRQLGGFDPKFVTAEDIDLNIRAVKAGFRFATCDSCVVYAKVRENLASFLRQAYWNGYGRYQLEMKHPGITRNTRVRLGHNFFDFLHMVSGAAGYLSARISEGKQGRLEHHHHHH | not failed
16 | MELTLALVIFVICYLLIMAETFNRAVVACLGGVLMLFVGIYPLDAAFLQYIDWHTITLLLSMMILVSITSQSGFFEYMAIRLAQKVDGRPIPLLIVVAGITAIGSAFLNNVTMVLLIVPIVLTLTNLLKLNAVPFLLTLVMASNIGGTATLIGDPPNLMIGQAVAHLSFNDFLLHLGPIVAVIFFVVLIGLILYYRRQLSVTAEDRSRLRGVDPTSYLKNRPLLIKSMTVLTLTTIGFTIQPFLPVELTSIAMAGALLLMLITQNEQDMEGVFRSVEWVTLFFFIGLFMLVGGIKEVGIIDEIAKAIIYYTEGDIPKTSLFILWGSGILSGFVDNIPFVAAMIPVILEFQEYGVGELDPLWWSLALGACLGGNATVIGATANVIVAGLAVQAKQSFSYLEFLKVGAPVALVSFLLCTVYLYIRYLIYF | failed
17 | MLRFPGQGHHNPDDVVIGLLDLAARVDEALAVQAVAFGLGADEVAVRHQIVLRHLTSPGARAFGATTGDGRLVGFVYGMPNDRTHWWSTVVEPYLRGQGHEDWLDNSFVITELHVHPHFQNHGIGRSLITTITDGAAEPRSILSAIDTESPARGLYHSLGYEDLARQVLFPSAPRPYAVMGAPLPLRRR | failed
